The values that follow come from patent publication US20170128527A1.

This assay concerns the target Human Prolactin Receptor (PrlR) (human) (UniProt P16471). Description: cell-based or functional assay.
Chain of UniProt P16471 (P16471 25-622 limits assumed): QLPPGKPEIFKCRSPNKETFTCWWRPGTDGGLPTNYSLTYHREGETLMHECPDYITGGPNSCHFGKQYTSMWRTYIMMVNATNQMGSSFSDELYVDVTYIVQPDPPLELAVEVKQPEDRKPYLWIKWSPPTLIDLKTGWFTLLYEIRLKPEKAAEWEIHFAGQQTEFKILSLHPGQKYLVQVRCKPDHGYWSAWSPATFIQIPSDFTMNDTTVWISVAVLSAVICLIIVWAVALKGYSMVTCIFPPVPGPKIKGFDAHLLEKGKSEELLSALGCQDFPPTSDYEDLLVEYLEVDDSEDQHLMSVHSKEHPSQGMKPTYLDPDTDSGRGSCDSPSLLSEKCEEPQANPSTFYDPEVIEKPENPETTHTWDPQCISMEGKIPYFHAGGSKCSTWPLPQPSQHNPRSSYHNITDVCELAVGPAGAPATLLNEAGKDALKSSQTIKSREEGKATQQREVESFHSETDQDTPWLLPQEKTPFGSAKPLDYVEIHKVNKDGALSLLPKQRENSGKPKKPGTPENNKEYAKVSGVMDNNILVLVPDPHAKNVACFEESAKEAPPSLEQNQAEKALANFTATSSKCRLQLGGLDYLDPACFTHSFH

For “Prl receptor antagonist Prl Δ1-9 S33A, Q73L, G129R, K190R (SEQ ID NO: 13) (from UniProt P01236 38-227) (ligand)”, the Invasion (AU), U251 MG cells, CytoSelect Cell Invasion Assay, OD 560 nm; Prl 200 ng/ml + antagonist 200 ng/ml (control 0.380) was determined as 0.379 AU and the Invasion (AU), U251 MG cells, CytoSelect Cell Invasion Assay, OD 560 nm; antagonist alone (control 0.380) was 0.385 AU.
